In the DeepSol protein solubility set:

Assay: soluble on expression in E. coli; label from the status in PepcDB or PDB records
With “MAAPDIKTIVNGINIKQSFAIQNQIRDGGDGELAKPRYQATVVWDSGYHTTSNVTDGQIIIGDEPVHYGGEGMGITPQDLLLTAVGHCLAASYIGGLSAAHINVESLHVHVSGRVNFRAAFAVEPGNPGFEDISVIVEIQTDAPQEQVTALLEKLKHMAPIPDTIMRPVPVNIEIRHQLK” the “soluble on expression in E. coli” value was “not soluble”.
In the case of “MAKTLDSPGVLVVDFGGQYAHLIARRIRELGVYSEIVPATSLDALGEALPRAAGVVLSGGPGSVWGSRHDEAAAMVLQLGKPVLGICYGHQLLAKVLGGEVGRSPLPEFGPTEVEVLDYGILLNGLPSRFKVWMSHYDAVLRPPGEAKVLARTPGSPVAAMELWGRVFGVQWHPEVRHTQYGREVLDNWLSLVGAPRTWRPGDMVSELVESVKKEVGDALAVAAVSGGVDSTVAALIAKKAIGSRLYPVFIDHGLHPEGEVERVVKLLSRLGLEPVMVDAGEEFLAALEGVGDPEEKRRVVGRVYAEVLERAARDIGAEYLVQGTIYPDVIESGARPGADTIKTHHNVGGLPKDMRLKLVEPLRYFYKDEVRLLAEKLGVPRELIWKQPVPGPGLAVRVEGPITREKLRIVRRADAIVREEVEAAGLGGKLWQYFAVLTASMATGVRGDSRSYGYVVAVRAVESVDAMTAKPAELPWWLLERIARRITSEIPEVVRVVYDITSKPPSTIEWE”, the “soluble on expression in E. coli” value is reported as “soluble”.
For “GPLGSPEFPHPLQDSWSYYLFQFRKALDWDECLEKVATFSTIEDFWSVLTHTVRPREITYGKDLYMFKSDIMPKWEDPKNENGGRWLINVTARQDVDFLWDELLMLLIGSDWDTDEEDRQICGAVFQPRSRGSKLSVWLTSDNEEETILSIGRRIKERLELEDTIYFQPVSDQRSQTRGSDICTGKYEI”, the “soluble on expression in E. coli” value was “soluble”.
With “MIRGWLAEGERMKETSYYSYVVGELPKGCQYCVRGEKLVLFVTGVCPRNCFYCPLSPWRRKDVAYANERPIRKIEDIIEEAKIQEARGAGVTGGDPLARLNRTVEYIRTLKEEFGKKFHIHLYTTGILADKRALSMLYDAGLDEIRFHPDLFEPSSKFLNREIENLKNAFDFDWDVGGEVPAVPGFGDRIKWFAEILDKFGGKFLNINELEYSETNLSNILNRGFKLAGENSFAIKGSLELGLEILEWGEKNTSLYYHLCTAKLKDAVQLRNRLRRMAKNVAKPYMEITEDGTLRFGIAEYEDLEELYKFLVEEAEVPKEWLYINWEKKRIEMPVEVAEELAEAIEGDVKFYIVEEYPTWDRIEVERIPLN” the “soluble on expression in E. coli” value was “not soluble”.
In the case of “MGSDKIHHHHHHMSANTQSMIFTVYGDYIRHYGNQIWVGSLIRLLKEFGHNEQAVRVAVSRMVKQGWLTSQKQGTKSFYSLTPRGVERMEEAARRIYKSTPHVWDGKWRTLMYTIPEDKRQIRDELRKELSWSGFGNLSNGVWISPNPLEKEAERLIEAYDIKAYIDFFVGEYHGPQQDQSLVERAFPLDELQERYEQFIAEYSRRYIVHQSRIQLGEMDEEQCFVERTTLVHEYRKFLFTDPGLPQELLPDEWSGHHAALLFEQYYRLLAEPASRFFESIFRETHDVTQKSADYDASEHPLFAER”, the “soluble on expression in E. coli” value is reported as “not soluble”.
With “GSHMNIITVTLNMEKYNFLGISIVGQSNERGDGGIYIGSIMKGGAVAADGRIEPGDMLLQVNDMNFENMSNDDAVRVLRDIVHKPGPIVLTVAKSGGGGEIVLWSDIP” the “soluble on expression in E. coli” value was “soluble”.
With “MSEQITFATSDFASNPEPRCPCILLLDVSGSMNGRPINELNAGLVTFRDELLADPLALKRVELGIVTFGPVHVEQPFTSAANFFPPILFAQGDTPMGAAITKALDMVEERKREYRANGISYYRPWIFLITDGAPTDEWQAAANKVFRGEEDKRFAFFSIGVQGADMKTLAQISVRQPLPLQGLQFRELFSWLSSSLRSVSRSTPGTEVVLEAPKGWTSV” the “soluble on expression in E. coli” value was “soluble”.
With “SGAMYIDCDGIKLNAYLDMPKNNPEKCPLCIIIHGFTGHSEERHIVAVQETLNEIGVATLRADMYGHGKSDGKFEDHTLFKWLTNILAVVDYAKKLDFVTDIYMAGHSQGGLSVMLAAAMERDIIKALIPLSPAAMIPEIARTGELLGLKFDPENIPDELDAWDGRKLKGNYVRVAQTIRVEDFVDKYTKPVLIVHGDQDEAVPYEASVAFSKQYKNCKLVTIPGDTHCYDHHLELVTEAVKEFMLEQIAK” the “soluble on expression in E. coli” value was “soluble”.
For “MEQKNVRNFCIIAHVDHGKSTLADRLLEYTGAISEREKREQLLDTLDVERERGITVKMQAVRMFYKAKDGNTYKLHLIDTPGHVDFSYEVSRALAACEGALLLIDASQGIEAQTVANFWKAVEQDLVIIPVINKIDLPSADVDRVKKQIEEVLGLDPEEAILASAKEGIGIEEILEAIVNRIPPPKGDPQKPLKALIFDSYYDPYRGAVAFVRIFDGEVKPGDKIMLMSTGKEYEVTEVGAQTPKMTKFDKLSAGDVGYIAASIKDVRDIRIGDTITHAKNPTKEPVPGFQPAKPMVYAGIYPAEDTTYEELRDALEKYAINDAAIVYEPESSPALGMGFRVGFLGLLHMEIVQERLEREYGVKIITTAPNVIYRVKKKFTDEVIEVRNPMDFPDNAGLIEYVEEPFVLVTIITPKEYVGPIIQLCQEKRGIQKNMTYLDPNTVYLEYEMPLSEIIVDFHDKIKSISRGFASYDYEFIGYRPSDLIKLTVLINKKPVDALSFIVHADRAQKFARRVAEKLRETIPRQLFEVHIQVAKGGKVIASERIKPLRANVTAKCYGGDVTRKKKLLENQKEGKKRMKQFGKVQLPQEAFLSVLKVE”, the “soluble on expression in E. coli” value was “soluble”.
For “FPSKARMFEGLIEFIEESLMSRINRIFDEEKDTLNRIRLVMQLLLAFAERNPGLTRILSGHALMFENERLRDRINQLFERIETSLRQILRERKLREGKSFPVDENILAAQLLGQVEGSLNRFVRSDFKYLPTANFDEYWALLSAQIK”, the “soluble on expression in E. coli” value was “not soluble”.
With “MSLIKKVLPLAEQLRPKNLNDIVGQDHILGENGLITKTIESQIPLSVILWGPPGCGKTSIARLYAQAFNMQFISMSAIFSGVADLKKTIKEAQNQPLFHKGTLLFVDEIHRFNKSQQDAFLPFVENGTIILIGATTENPSFYLNGALLSRLRVLPIYPLDGFSLEQLLERYEKQFAPLPLTAEARHWLITCAQGDGRYLYNLIENLRYASKQILDIPLLEKIFQKRSPLFDKRGDQHYNLISALHKSVRGSDPNAAIYWFTRMLEGGEEPLFLARRLIRMAVEDIGLSDPQALPLAIAAKDAYEMLGSPEGELALAEVVIYLALAPKSNAVYRAFGMAKESASKTSYLNPPLTILNAPTKMMKNLGYGKDYQYDPDLPEAFSGQNYFPDSLEKQHFYEPVERGFERELKKRLEYFEQLRLKKKEGHHHHHH” the “soluble on expression in E. coli” value was “soluble”.
With “MVTVREAKLEDIKDIAKVHVDSWRTTYHEIIPIDYLNSLNYKEFEDKWKSRSLKGVFVAQDEKGSVFGFASFGPIRSEQEGYDGELYAIYLLEERQRQGAGRALLAKGAEFLLQHGFSSMFVWVIEQNPSIIFYQAYSPERVAEDNFEIAGVRLKEVGLGWPDLSALKTLLNR” the “soluble on expression in E. coli” value was “soluble”.
In the case of “MNIKKHLPWLGALLPIINAQADTNPNVVIIYIDDMGIGDIGCYGGKFVATPNIDKLAQDGLLFNQYYSSAPVSSPSRCGLTTGLFPIEVGINTFLNDKASNKRCEQRNYLDDKLPSMARAFQNAGYATGHIGKWHMGGGRDVHNAPSIKNYGFDEYLSTYESPDPDPAITASKWIWCDNDSIKRWKRTEYFVDKSIDFIKRHKDSPFFLNLWPDDMHTPWVPEFKQKERKSWETKEAFSPVLGEMDKQIGRFIKALDDMGLSENTIIIFTSDNGPAPSFKAVRSAYLRGTKNSLYEGGIRMPFIVKYPKKIKPGRVNNSSVLCAVDLYPTLCSVAGIKTEKNYKGDGQNYAKVLLGKSEAKRKTDLMWDFGRNKHFGFPGNPYDRSPHLAIRSGKWKLLVNGDGSDAQLYDMELDKFEKNNIAGEHPELVAKLSKKVCEWYAQNKDKGLQTDLLEHHHHHH”, the “soluble on expression in E. coli” value is reported as “soluble”.
With “MSLSKTSKMKKTEISKKPSELGISNKTQDDLSKYSDTVNIALFGVDRRLKTDVSRSDSIMILTMDPAHKKLKLSSIMRDTYVNVDGHGMTKITHAYAYGGPQLAIKTINENFKLNIKDYVTVDFYALEKIIDKLNGVEINVQSDEVGYLNGYIDEVSKYEKVTPNHVTSSGKQLLDGRQAVAYSRIRYTAGGDFVRTERQRTVLMAVFNKLQAQGKSNMVSMFDEILPYTETNMGSIDIAKYGTKFISSDISNIDQERFPLDGYCSGVTVDNVWYLKTDLNVTSDQMRKYIFEDVKPSPKASLVNIPEKEGHHHHHH” the “soluble on expression in E. coli” value was “soluble”.
For “MRVKAMASFSPFDVTLWYSTAAPAPLTEPLSGRIQADVCIVGAGYTGLTTALELAKAGVDVVLLERQEIGFGGSGRNAGHCTPTFTHYSLPELRKMLGETWAERLIERQTRANDRVSHMIRDYRINCEWVQNGYVMGAPHKGAIEEIRRKVETYNAVGAKTRLLGRDEVAAITGSPRFHGGWLHEEAGHLNPLAYARGLGGAVIQERGRIFTGSSVTGCERNATGGWKVRTEHGEVIASKVIFTTGAYTVGGWPKLDQTFKIQRVFVAATQILSEETRRTVLPRNTTIHDGRGDIYVYKYNAEGRIVASMFPMGRRGRDIVYTRQVMSDRLKWLHPQISADIRWDYFWFGELDMQYRTVPRLYDLSPGVVALTGLSGRGVPTGSMLGSILSEWALGKPENELALKVEPLKSAPFYMSFAPAMTLRYYRMRDNIATRLAGMELPPHALEHHHHHH”, the “soluble on expression in E. coli” value was “not soluble”.
In the case of “MRIPRDTGAAEPGQYRTARTPYAREPMRCLSPAHPCKRVVTMVASQLMKTQIALNWIGALIHMSPSNILTLLPSLSLAKRVSARISKTINATPVLRERVASPRSRDARNTMDTKEFEGGALFATTAGSAANLAELSARFVYGDEVDRWDVDVDDEGDPIELAETRGSTFGRNAKFYFSSSPTIKGASRIDDLFSTSDQRYYYVPCPSCGHMQTLEWERLLYSPDFSTVHYQCAGPDCDVLIEEFHKGDMLARGEWRSHADGDGETVGFHLNALYAPLGWQSWSSLAKQYEKAKKAQDRGDLEPMQVFYNTRLAKVWDSAQEQTKAAVLQARALLEDYVLGTMPTGVLSLVSAVDVQANRLEMMVVGCGEGMERWIVDFQVIMGDPADDRTWLALDEKLKERYRHPCGVSLAILATAVDSGGHHTHEVYQFCRVRRWRNVFAIKGASKPGKPVIAQRPSLVDVTWKGQTERNGAELWMVGTDTAKDWIYNRYHLESGPGALHFPKDLPDDFFAQCVAERKVTRYVKGFKRIEWVKGKAERNEALDLLVYSLAMAHYLGLHRYGEHDW”, the “soluble on expression in E. coli” value is reported as “not soluble”.
With “MSSLAKLGYFFDEKGVLKTEKDKKPFKFTTQEDYEELGEAVDLEVYELLETRCGLKRKALKLPGKTDEDEDLSFIFVSKNFKKAANLLVLIHGSGVVRAGQWARRLIINDNLECGTQIPYIERAIENGWGVVVMNTNLNESKDQDLKYSRTPVEHAETVWIACIEPSNAKSIYVVAHSRGGYDTASVLKKFGGDDRISKICLTDSPWFEFPKSCAQRARPLFVVNFLAHGALNSPSYKVREYREGNVAELWAGTQIHEWSSHCAIDAVFHILETEMTPSNYAEVMEEAKKLVVKSENSKESDDEAPKSKKICV” the “soluble on expression in E. coli” value was “not soluble”.
With “MGSDKIHHHHHHMKEKERLIIEMAMKLFATKGVNATSVQEIVTACGISKGAFYLYFKSKEELLLATLRYYYDKIQNKMMDIEKESLLPREKFAKQLHCQFNDIQKHKEFIIMHARENAIPFNKEVEEFMMRMKLESHAFYRNSLLSIYGDKVMPYLLDLVIMVEGICRGYLELIILQAPEIDLSYVSAFILKRVDHLVDGLVKSSEEPVLHEERLGEFLCKSELIKEQVKEHFLKEIIVFKRTLADQLEDEELLVTLDVLEAEMRMQNPRIPVIQGMLFNLEAYPTLKEFRLRLMGYYNIKR” the “soluble on expression in E. coli” value was “not soluble”.
With “MAHHHHHHMADGKAENELMEIEEIAVSDGGAARFAPVEVKSGEEKYNIVWEETGKLLRFDEGENAWKERGQGMAKILQKKEDSGVYMFVFRREGVGKLAAQHYLLRGMTIKVHPQSEKALLWTAFKDYSDDEEGFPERFVLRFASKELADSGLKAFNDALSKTTT” the “soluble on expression in E. coli” value was “soluble”.
